# Assay results taken from US20250223358A1 (ANTENGENE BIOLOGICS, published 2025).
# Read-outs that look alike come from different tables or passages of the source.
# Assays:
# human CD3 [1] = target: T1, human CD3 (human, UniProt P07766 23-207; P04234 22-171; P09693 23-182); assay: FACS on HEK293T-hCD3mix cells; note: test concentration or dose not given here
# T1 construct: whole, on cells; also called hCD3; CD3 on Jurkat cells
# human CD3 [2] = target: T1, human CD3; assay: cell-based or functional assay
# human CD3 [3] = target: T1, human CD3; assay: FACS on Jurkat cells
# human CD3 [4] = target: T1, human CD3; assay: cell-based or functional assay; remark: listed apart in the source
# human CD3 [5] = target: T1, human CD3; assay: FACS on Jurkat cells; remark: listed apart in the source
# human CD3 [6] = target: T1, human CD3; assay: cell-based or functional assay; remark: listed apart in the source
# human CD3 [7] = target: T1, human CD3; assay: FACS on Jurkat cells; remark: listed apart in the source
# human CD3 [8] = target: T1, human CD3; assay: FACS on Jurkat cells; remark: listed apart in the source
# cynomolgus CD3 [9] = target: T2, cynomolgus CD3 (cynomolgus (Macaca fascicularis), UniProt Q95LI5 22-198; Q95LI8 22-171; Q95LI7 23-181); assay: FACS on 293T-cynoCD3mix cells
# T2 construct: whole, on cells; composition of the 'mix' not defined; also called cynoCD3
# cynomolgus CD3 [10] = target: T2, cynomolgus CD3; assay: FACS on 293T-cynoCD3mix cells; remark: listed apart in the source
# T2 sequence (Q95LI5 22-198, chain 1 of 3): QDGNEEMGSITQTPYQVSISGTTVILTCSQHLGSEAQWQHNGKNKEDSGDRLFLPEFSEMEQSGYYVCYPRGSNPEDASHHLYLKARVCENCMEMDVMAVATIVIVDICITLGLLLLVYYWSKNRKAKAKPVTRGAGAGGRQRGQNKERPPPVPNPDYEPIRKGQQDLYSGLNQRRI
# T2 sequence (Q95LI8 22-171, chain 2 of 3): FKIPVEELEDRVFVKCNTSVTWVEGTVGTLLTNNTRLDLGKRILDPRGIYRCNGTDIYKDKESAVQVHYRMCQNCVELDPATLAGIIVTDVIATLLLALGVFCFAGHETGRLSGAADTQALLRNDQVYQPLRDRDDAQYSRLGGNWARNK
# T2 sequence (Q95LI7 23-181, chain 3 of 3): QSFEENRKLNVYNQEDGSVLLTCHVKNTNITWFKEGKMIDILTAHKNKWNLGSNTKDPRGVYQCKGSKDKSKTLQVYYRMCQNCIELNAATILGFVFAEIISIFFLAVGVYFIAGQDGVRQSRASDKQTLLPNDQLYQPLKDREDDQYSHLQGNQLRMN
# T1 sequence (P07766 23-207, chain 1 of 3): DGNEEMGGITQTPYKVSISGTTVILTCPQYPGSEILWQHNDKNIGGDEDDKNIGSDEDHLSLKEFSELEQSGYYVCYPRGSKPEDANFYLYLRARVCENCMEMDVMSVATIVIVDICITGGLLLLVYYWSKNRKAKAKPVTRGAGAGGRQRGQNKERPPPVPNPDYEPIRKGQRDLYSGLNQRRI
# T1 sequence (P04234 22-171, chain 2 of 3): as the sequence (Q95LI8 22-171, chain 2 of 3) above, with V5I, K15N, V20I, T32S, N33D, N34I, A64T, N74S, L83V, R141H counted along it
# T1 sequence (P09693 23-182, chain 3 of 3): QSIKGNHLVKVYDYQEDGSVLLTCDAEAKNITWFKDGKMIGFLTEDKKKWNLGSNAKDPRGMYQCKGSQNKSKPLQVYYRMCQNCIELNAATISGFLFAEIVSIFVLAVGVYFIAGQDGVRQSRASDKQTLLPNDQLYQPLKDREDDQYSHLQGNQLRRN
binder,measurement,setting,value
"40-C12-C10-E9 (antibody, V domains shown, mouse monoclonal (hybridoma) antibody) VH: EVQLQLSGPELVKPGASVKMSCKASGYTFSSYVIHWVKQKPGQGLEWIGYINPYNDVIKYNEKFKGKATLTSDKSSSTAYMELSSLTSEDSAVYYCARDSYYSYDGFAYWGQGTLVTVSA VL: QIVLTQSPAIMSASPGEKVTMTCSASSSVSYMHWYQQKSGTSPKRWIYDTSKLASGVPARFSGSGSGTSYSLTISSMEAEDAATYYCQQWSSNPPTFGGGTKVEIK",FACS MFI,human CD3 [1],13100 MFI
"BMK-TCB (antibody, V domains shown, benchmark anti-CD3 antibody; also called anti-CD3 antibody developed by Roche) VH: not shown VL: QAVVTQEPSLTVSPGGTVTLTCGSSTGAVTTSNYANWVQEKPGQAFRGLIGGTNKRAPGTPARFSGSLLGGKAALTLSGAQPEDEAEYYCALWYSNLWVFGGGTKLTVL",EC50 (Jurkat-NFAT-luciferase activation),human CD3 [2],59.4 nM
same,Top signal (Jurkat-NFAT-luciferase activation),human CD3 [2],753
same,EC50,human CD3 [3],1.35 nM
same,Top FACS signal,human CD3 [3],2370
same,"EC50_Fold change (Jurkat-NFAT-luciferase activation, normalized to ch147E11E2; mean)",human CD3 [4],2.24 fold
same,"Top FACS signal_Fold change (Jurkat-NFAT-luciferase activation, normalized to ch147E11E2; mean)",human CD3 [4],0.5 fold
same,EC50,human CD3 [5],1.3 nM
same,Top FACS signal,human CD3 [5],2570
same,"EC50_Fold change (Jurkat-NFAT-luciferase activation, normalized to ch40-C12-C10-E9; mean)",human CD3 [6],8.17 fold
same,"Top FACS signal_Fold change (Jurkat-NFAT-luciferase activation, normalized to ch40-C12-C10-E9; mean)",human CD3 [6],0.48 fold
same,EC50,human CD3 [7],1.6 nM
same,Top FACS signal,human CD3 [7],1740
same,EC50,human CD3 [8],1.91 nM
same,Top signal,human CD3 [8],3140
"BMK-B219 (antibody, V domains shown, benchmark anti-CD3 antibody; also called anti-CD3 antibody developed by JNJ (Johnson & Johnson)) VH: EVQLVESGGGLVQPGGSLRLSCAASGFTFNTYAMNWVRQAPGKGLEWVARIRSKYNNYATYYAASVKGRFTISRDDSKNSLYLQMNSLKTEDTAVYYCARHGNFGNSYVSWFAYWGQGTLVTVSS VL: QTVVTQEPSLTVSPGGTVTLTCRSSTGAVTTSNYANWVQQKPGQAPRGLIGGTNKRAPGTPARFSGSLLGGKAALTLSGVQPEDEAEYYCALWYSNLWVFGGGTKLTVL",EC50 (Jurkat-NFAT-luciferase activation),human CD3 [2],68.4 nM
same,Top signal (Jurkat-NFAT-luciferase activation),human CD3 [2],811
same,EC50,cynomolgus CD3 [9],4.34 nM
same,Top signal,cynomolgus CD3 [9],60000
same,EC50,human CD3 [8],1.47 nM
same,Top signal,human CD3 [8],3000
"2-F12-A6-G2 (antibody, V domains shown, mouse monoclonal (hybridoma) antibody) VH: EVQLVESRPGLVAPSQSLSITCTVSGFSLTSYGVSWVRQPPGKGLEWLGVIWGDGNTNYNSDLKTSLSISKDNSKSQVFLKLDSLQTDDTATYYCAKVSYWYFDVWGTGTTVTVSS VL: DIQLTQPPASLSASVGETVTITCRASENIYSYLAWYQQKQGKSPQLLVYNAKTLPEGVPSRFSGSGSGTQFSLKINSLQPEDFGTYYCQHHYGTPPTFGTGTKLELK",FACS MFI,human CD3 [1],53800 MFI
"16-F2-C11-D9 (antibody, V domains shown, mouse monoclonal (hybridoma) antibody) VH: EVQLQQSGPELVKPGASVKMSCKASGYTFTDFNIHWVKQSLGKSLEWIGYINPNDGGSTYNQKFKGKATLTINKSSSSAYMELRSLTSEDSAVYYCAIPFLDSWGQGTSVTVSS VL: TLMMTQSPSSMYASLGERVTITCKASQDINSYLRWYQQKPGKSPKTLIYGASSLVDGVPSRFSGRGSGQDYSLTISSLEYEDMGIYYCLQYDEVPLTFGAGTKLELK",FACS MFI,human CD3 [1],80300 MFI
"7-D9-G10-H2 (antibody, V domains shown, mouse monoclonal (hybridoma) antibody) VH: EVQLQQSGPELVKPGASVKISCKASGYSFTGYFMNWVKQSHGKSLEWIGRFNPYNGDTFYNQNFKGKATLTVDKSSSTAHMELRSLTSEDSAVYYCARGDYWGQGTTLTVSS VL: not shown",FACS MFI,human CD3 [1],51000 MFI
"7-D8-G12-E4 (antibody, V domains shown, mouse monoclonal (hybridoma) antibody) VH: EVKLVESGGGLVKPGGSLKLSCAASGFTFSSYPMSWVRQTPAKRLEWVATISSGGGNTYYPDSVKGRFTISRDNARNTLYLQMSSLRSEDTAMYYCARGLYWYFDVWGAGTTVTVSS VL: DIVLTQSPLSLPVSLGDQASISCRSSQSIAHSNGDTYLEWYLQNPGQSPKLLIYKVSNRISGVPDRFSGSGSGTDFTLKISRVEAEDLGVYYCFQGSHVPYTFGGGTKLEIK",FACS MFI,human CD3 [1],65200 MFI
"3-C6-C11-F12 (antibody, V domains shown, mouse monoclonal (hybridoma) antibody) VH: EVHLVESGGGLVQPGGSRKLSCAGSGFTFSTYGMHWVRQAPEKGLEWVAYISNGGSTIYYADSVKGRFTISRDNPNDTLFLHMTSLGSEDTAMYYCARPTWGGFAYWGQGTLVTVSA VL: DIVLTQSPLSLPVSLGDQASISCRSSQSIAHSNGDTYLEWYLQNPGQSPKLLIYKVSNRISGVPDRFSGSGSGTDFTLKISRVEAEDLGVYYCFQGSHVPYTFGGGTKLEIK",FACS MFI,human CD3 [1],21800 MFI
"8-B12-F9-B11 (antibody, V domains shown, mouse monoclonal (hybridoma) antibody) VH: EVQLVESGGGIVKPGGSRKLSCAASGFTFSDYGMHWVRQAPEKGLEWIAYISSASGKIYYADTVKGRFTISRDNAKNILFLQMTSLRSEDTAMYYCARVLRWSVNYVMDYWGQGTSVTVSS VL: DIVMTQSPSSLAVSAGEKVTMNCESSQSVLYSSNQKNYLAWYQQKPGQSPKLLIYWASTRESGVPDRFTGTGSGTDFTLTISSVQAEDLAVYYCHQYLSSWTFGGGTKLEIK",FACS MFI,human CD3 [1],67100 MFI
"4-F12-F1-A4 (antibody, V domains shown, mouse monoclonal (hybridoma) antibody) VH: EVKLVESGGGLVKPGGSLKLSCAASGFTFSSYTMSWIRQTPAKRLEWVATISSGGGNTFYADSVKGRFTISRDNARNTLNLQMSSLRSEDTAMYYCARSLYYYDGTYVRKDYYAMDYWGQGSSVTVSS VL: DIQMTQSPASLSVSVGETVTISCRASENIFSNLAWYQQKQGKSPQLLVYAATNLAEGVPSRFSGSRSGTQFSLKINSLQSEDFGSYYCQQFWGTPWTFGGGTKLEVK",FACS MFI,human CD3 [1],16800 MFI
"hu147E2-L3H4 (antibody, V domains shown, humanized 147E11E2; also called hu14E2-L3H4) VH: EVQLVQSGAEVKKPGSSVKVSCKASGYTFTSYWMHWVRQAPGQGLEWIGNINPSNGATNYNEKFKSRATLTVDKSTSTAYMELSSLRSEDTAVYYCARDRSSQYYFDYWGQGTTVTVSS VL: DIQMTQSPSSLSASVGDRVTITCKSSQSLLNSRSRKNYLAWYQQKPGKAPKLLIYWASTRESGVPSRFSGSGSGTDFTLTISSLQPEDFATYYCTQSYTLRTFGGGTKVEIK",EC50,human CD3 [3],0.671 nM
same,Top FACS signal,human CD3 [3],2680
same,"EC50_Fold change (Jurkat-NFAT-luciferase activation, normalized to ch147E11E2)",human CD3 [4],2.12 fold
same,"Top FACS signal_Fold change (Jurkat-NFAT-luciferase activation, normalized to ch147E11E2)",human CD3 [4],0.6 fold
same,EC50,cynomolgus CD3 [10],1.29 nM
same,Top signal,cynomolgus CD3 [10],16100
"20-E11-E11-C2 (antibody, V domains shown, mouse monoclonal (hybridoma) antibody) VH: EVQLQQSGPEVVKPGASVKISCKASGYTFTDYYMNWVKQSHGKNLEWIGDINPIHGGISSNQKFSDKATLTVDKSSNTAYLELRSLTSEDSAIYYCARRIYYGYDWYFDVWGTGTTVTVSS VL: DIVLSQSPAIMSASPGERVTMTCSASSSVTSRYFFWYQQKPGSSPKLWIYSTSNLASGVPVRFSGSGSGTSYSLTINNMAAEDAATYYCQQYSTSPSTFGAGTKLELK",FACS MFI,human CD3 [1],55200 MFI
"ch126A11A4 (antibody, V domains shown) VH: QVQLQQPGTELVKPGASVKLSCKASGYTFTSYWMHWVKQRPEQGLEWIGNINPSNGDTNYNEKFKSKATLTVDKASNTAYMQLSSLTSEDSAVYYCGRDRSSQYYFDYWGQGTTLTVSS VL: DIVMSQSPSSLAVSAGEKVTMSCKSSQSLLNSRTRKNYLAWYQQKPGQSPKLLIYWASTRESGVPDRFTGSGSGTDFTLTISSVQAEDLAVYFCKQSFILRTFGGGTKLEIK",EC50 (Jurkat-NFAT-luciferase activation),human CD3 [2],33.6 nM
same,Top signal (Jurkat-NFAT-luciferase activation),human CD3 [2],682
same,EC50,cynomolgus CD3 [9],2.91 nM
same,Top signal,cynomolgus CD3 [9],57000
same,EC50,human CD3 [8],0.567 nM
same,Top signal,human CD3 [8],1760
"ch147E11E2 (antibody, V domains shown) VH: QVQLQQPGTELVKPGTSVKLSCKASGYTFTSYWMHWVKQRPGQGLEWIGNINPSNGATNYNEKFKSKATLTVDKSSSTAYMQLSSLTSEDSAVYYCARDRSSQYYFDYWGQGTTLTVSS VL: DIVMSQSPSSLAVSAGEKVTMSCKSSQSLLNSRSRKNYLAWYQQKPGQSPKLLIYWASTRESGVPDRFTGSGSGTDFTLTISSVQAEDLAVYYCTQSYTLRTFGGGTKLEIK",EC50 (Jurkat-NFAT-luciferase activation),human CD3 [2],33 nM
same,Top signal (Jurkat-NFAT-luciferase activation),human CD3 [2],421
same,EC50,human CD3 [3],0.649 nM
same,Top FACS signal,human CD3 [3],2780
same,"EC50_Fold change (Jurkat-NFAT-luciferase activation, normalized to ch147E11E2)",human CD3 [4],1 fold
same,"Top FACS signal_Fold change (Jurkat-NFAT-luciferase activation, normalized to ch147E11E2)",human CD3 [4],1 fold
same,EC50,cynomolgus CD3 [10],1.23 nM
same,Top signal,cynomolgus CD3 [10],17800
same,EC50,cynomolgus CD3 [9],2.19 nM
same,Top signal,cynomolgus CD3 [9],53900
same,EC50,human CD3 [8],0.419 nM
same,Top signal,human CD3 [8],2780
"ch147C6F3 (antibody, V domains shown) VH: QVQLQQPGTELVKPGASVKLSCKASGYTFDSYWMHWVKQRPGQGLEWIGNLNPSNGEINYNEKFKHKATLTVDKSSSTAYMQLSSLTSEDSAVYYCSRDRSSQYYFDYWGQGTTLTVSS VL: DIVMSQSPSSLAVSAGEKVTLSCKSSQSLLNSRTRKNYLAWYQQKSGQSPKLLMYWASTRESGVPDRFTGSGSGTDFTLTITNVQAEDLAVYYCKQSYILRTFGGGTKLEIK",EC50 (Jurkat-NFAT-luciferase activation),human CD3 [2],57.4 nM
same,Top signal (Jurkat-NFAT-luciferase activation),human CD3 [2],428
same,EC50,cynomolgus CD3 [9],4.15 nM
same,Top signal,cynomolgus CD3 [9],55200
same,EC50,human CD3 [8],1.77 nM
same,Top signal,human CD3 [8],2280
